Biological target: A. fumigatus FKBP12(V91C) (Aspergillus fumigatus)
Assay: cross-linking; disulfide trapping through the single cysteine V91C; protein purified from C41(DE3) and SHuffle cells without reducing agent; nonreducing SDS-PAGE

Substance A. fumigatus FKBP12(V91C) (enzyme) has a stoichiometry N of 2.
